In patent CN1869207A (INST OF BIOPHYSICS CAS, dated 2006) one finds Kd data, which are given here for 4 molecules.

Assay [1] concerns the target T1, 大肠杆菌表达的GST-MIF重组蛋白 (human, UniProt P14174 1-115).
T1 construct: Coating antigen (10 ug/ml) of the ELISA that gave all the dissociation constants; GST is placed N-terminal by the name GST-MIF; also called 人MIF; not shown: GST tag and vector-encoded residues from pET-41a
T1 sequence (looked up): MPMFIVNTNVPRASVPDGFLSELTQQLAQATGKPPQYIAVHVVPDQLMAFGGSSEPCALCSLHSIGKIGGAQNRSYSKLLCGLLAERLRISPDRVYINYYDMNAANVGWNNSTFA
The assay is described as follows: ELISA on coated GST-MIF (10 ug/ml); antibody concentration at 50% of the maximal reading is taken as the dissociation constant. For orientation: An ELISA detects its analyte on a solid surface through an enzyme-linked reagent.

In assay [2] the target is T1, 大肠杆菌表达的GST-MIF重组蛋白. The assay is described as follows: ELISA by the method of Example 1 (coated GST-MIF; concentration at 50% of the maximal reading).

Where “and” joins values, the source holds several entries; their conditions need not be identical. Equal values may be shown once.

B1: 杂交瘤细胞株10C3 CGMCC No.1717分泌的单克隆抗体 (antibody, mouse IgG2b, V domains shown)
VH: QVQLEESGGALVKPGGSLKLSCAASGFTFSTYAMSWVRQTPEKRLEWVATISSGGDYTHYPDSVKGRFTISRDNARNTLYLQMSSLRSEDTAMFYCARPYYGSSYWFYDVWGAGTTVTVSS
VL: DIVLTQTPVSIIASRGEKVTITCRARSSISSTYLHWYQQKPGSSPKLLIYRTSILASGVLDSFSGSGSETSDTLTISCMQDEVAATYYCQQGSSSPLTFGAGTKLELKR
notes: the mouse constant regions are not; Hybridoma supernatant was used in the ELISA and ascites-purified antibody in the cell assays; also called 10C3Ab; anti-MIF
The Kd is a measure of binding affinity in units of concentration. For the molecule B1, in the assay with 大肠杆菌表达的GST-MIF重组蛋白 [1], the Kd was 3 nM and 0.48 µg/mL.

B2: 人-鼠嵌合抗体ch-10C3 (antibody, V domains shown)
VH: QVQLEESGGALVKPGGSLKLSCAASGFTFSTYAMSWVRQTPEKRLEWVATISSGGDYTHYPDSVKGRFTISRDNARNTLYLQMSSLRSEDTAMFYCARPYYGSSYWFYDVWGAGTTVTVSS
VL: DIVLTQTPVSIIASRGEKVTITCRARSSISSTYLHWYQQKPGSSPKLLIYRTSILASGVLDSFSGSGSETSDTLTISCMQDEVAATYYCQQGSSSPLTFGAGTKLELKR
Regarding B2, in the assay with 大肠杆菌表达的GST-MIF重组蛋白 [2], the Kd is 3 nM.

B3: 抗MIF的Fab片段10C3Fab (Fab, V domains shown)
VH: QVQLEESGGALVKPGGSLKLSCAASGFTFSTYAMSWVRQTPEKRLEWVATISSGGDYTHYPDSVKGRFTISRDNARNTLYLQMSSLRSEDTAMFYCARPYYGSSYWFYDVWGAGTTVTVSS
VL: DIVLTQTPVSIIASRGEKVTITCRARSSISSTYLHWYQQKPGSSPKLLIYRTSILASGVLDSFSGSGSETSDTLTISCMQDEVAATYYCQQGSSSPLTFGAGTKLELKR
Consider B3, for which the affinity in the assay with 大肠杆菌表达的GST-MIF重组蛋白 [2], expressed as Kd, was 10 nM.

B4: 抗MIF单链抗体10C3scFV (scFv)
scFv: QVQLEESGGALVKPGGSLKLSCAASGFTFSTYAMSWVRQTPEKRLEWVATISSGGDYTHYPDSVKGRFTISRDNARNTLYLQMSSLRSEDTAMFYCARPYYGSSYWFYDVWGAGTTVTVSSGSSGSGSSGSGSSGSDIVLTQTPVSIIASRGEKVTITCRARSSISSTYLHWYQQKPGSSPKLLIYRTSILASGVLDSFSGSGSETSDTLTISCMQDEVAATYYCQQGSSSPLTFGAGTKLELKR
notes: Heavy and light variable regions joined by a 15-residue Gly/Ser-rich linker; Expressed from pET-26b in BL21 with a 6xHis tag
In the assay with 大肠杆菌表达的GST-MIF重组蛋白 [2], B4 registered a dissociation constant (Kd) of 30 nM.
